Assays:
[1] = target: Paclitaxel-stabilized microtubules (bovine brain αβ-tubulin) (bovine) (UniProt Q6B856); experiment: co-sedimentation; 3 μM Cin8, 1 μM microtubules, no added nucleotide or 1 mM ATP, ADP or AMPPNP, low and high ionic strength; SDS-PAGE of supernatant and pellet
[2] = target: Paclitaxel-stabilized microtubules (bovine brain αβ-tubulin) (bovine) (UniProt Q6B856)

stoichiometry N [1]: 1.3
K0.5,MT of the microtubule-stimulated steady-state ATPase (NADH coupled assay), 21 mM ionic strength [2]: 1.3 µM
Substance: Cin8-His-Δ99 (Cin8 motor domain in which the 99-residue loop 8 insert is substituted with the 7-residue loop 8 of Kip1) (from UniProt P27895 70-535) (domain or fragment)

Reference: PMC5582858, “The yeast kinesin-5 Cin8 interacts with the microtubule in a noncanonical manner” (The Journal of Biological Chemistry, 2017)
